{"source": "paper PMC2173870", "about": "(The Journal of Cell Biology, 2002)", "biological_target": "the molecule itself", "test": "SEC", "note": "Where “and” joins values, the source holds several entries; their conditions need not be identical. Equal entries are not always repeated.", "data": [{"protein": "RMKKKDEGSYDLGKKPILQQAPTNEFYA (peptide, UniProt P34901 175-202, looked up)", "note": "[syndecan-4 cytoplasmic tail peptide, PIP2- mutant (Y192KK to LQQ)]", "values": [{"measurement": "stoichiometry N", "result": "4 and 6"}]}]}
